Source: paper PMC6939906, “Leucine zipper transcription factor-like 1 binds adaptor protein complex-1 and 2 and participates in trafficking of transferrin receptor 1” (PLoS ONE, 2020)

T1: GST-β1 (glutathione S-transferase fused β1 subunit of AP-1) (human, UniProt Q10567 1-949)
T1 construct: cloned in pGEX-6P-1; also called GST-β1 (AP-1); GST-fused β1 subunit of AP-1; source: E. coli, purified (Glutathione Sepharose 4B)
T1 sequence (looked up): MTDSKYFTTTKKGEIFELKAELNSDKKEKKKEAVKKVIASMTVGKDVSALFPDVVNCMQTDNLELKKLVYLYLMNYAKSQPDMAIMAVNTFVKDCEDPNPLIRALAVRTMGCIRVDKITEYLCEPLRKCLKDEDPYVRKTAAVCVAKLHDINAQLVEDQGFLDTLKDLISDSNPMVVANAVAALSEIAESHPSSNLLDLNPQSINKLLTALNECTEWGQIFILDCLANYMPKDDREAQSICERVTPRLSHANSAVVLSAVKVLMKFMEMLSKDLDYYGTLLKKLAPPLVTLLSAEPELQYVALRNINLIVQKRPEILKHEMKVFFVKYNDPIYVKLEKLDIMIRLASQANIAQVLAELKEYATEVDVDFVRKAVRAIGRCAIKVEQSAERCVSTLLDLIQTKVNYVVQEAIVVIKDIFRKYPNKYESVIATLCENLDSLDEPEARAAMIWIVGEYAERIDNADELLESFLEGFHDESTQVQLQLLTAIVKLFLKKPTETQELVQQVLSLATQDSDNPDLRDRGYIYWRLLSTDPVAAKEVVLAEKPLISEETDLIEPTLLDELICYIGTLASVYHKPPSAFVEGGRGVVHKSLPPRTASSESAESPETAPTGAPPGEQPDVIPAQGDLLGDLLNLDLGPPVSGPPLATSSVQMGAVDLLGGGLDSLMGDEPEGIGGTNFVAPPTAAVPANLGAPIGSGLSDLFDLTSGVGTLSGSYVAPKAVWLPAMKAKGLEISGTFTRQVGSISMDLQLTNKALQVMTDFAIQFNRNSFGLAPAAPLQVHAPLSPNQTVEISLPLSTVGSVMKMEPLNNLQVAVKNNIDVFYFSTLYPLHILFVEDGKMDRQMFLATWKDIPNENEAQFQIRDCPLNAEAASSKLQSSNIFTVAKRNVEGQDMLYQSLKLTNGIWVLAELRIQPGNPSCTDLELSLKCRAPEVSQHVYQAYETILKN

T2: GST-β2 (GST-fused β2 subunit of AP-2) (human, UniProt P63010 1-937)
T2 construct: cloned in pGEX-6P-1; also called GST-β2 (AP-2); AP2B1; source: E. coli, purified (Glutathione Sepharose 4B)
T2 sequence (looked up): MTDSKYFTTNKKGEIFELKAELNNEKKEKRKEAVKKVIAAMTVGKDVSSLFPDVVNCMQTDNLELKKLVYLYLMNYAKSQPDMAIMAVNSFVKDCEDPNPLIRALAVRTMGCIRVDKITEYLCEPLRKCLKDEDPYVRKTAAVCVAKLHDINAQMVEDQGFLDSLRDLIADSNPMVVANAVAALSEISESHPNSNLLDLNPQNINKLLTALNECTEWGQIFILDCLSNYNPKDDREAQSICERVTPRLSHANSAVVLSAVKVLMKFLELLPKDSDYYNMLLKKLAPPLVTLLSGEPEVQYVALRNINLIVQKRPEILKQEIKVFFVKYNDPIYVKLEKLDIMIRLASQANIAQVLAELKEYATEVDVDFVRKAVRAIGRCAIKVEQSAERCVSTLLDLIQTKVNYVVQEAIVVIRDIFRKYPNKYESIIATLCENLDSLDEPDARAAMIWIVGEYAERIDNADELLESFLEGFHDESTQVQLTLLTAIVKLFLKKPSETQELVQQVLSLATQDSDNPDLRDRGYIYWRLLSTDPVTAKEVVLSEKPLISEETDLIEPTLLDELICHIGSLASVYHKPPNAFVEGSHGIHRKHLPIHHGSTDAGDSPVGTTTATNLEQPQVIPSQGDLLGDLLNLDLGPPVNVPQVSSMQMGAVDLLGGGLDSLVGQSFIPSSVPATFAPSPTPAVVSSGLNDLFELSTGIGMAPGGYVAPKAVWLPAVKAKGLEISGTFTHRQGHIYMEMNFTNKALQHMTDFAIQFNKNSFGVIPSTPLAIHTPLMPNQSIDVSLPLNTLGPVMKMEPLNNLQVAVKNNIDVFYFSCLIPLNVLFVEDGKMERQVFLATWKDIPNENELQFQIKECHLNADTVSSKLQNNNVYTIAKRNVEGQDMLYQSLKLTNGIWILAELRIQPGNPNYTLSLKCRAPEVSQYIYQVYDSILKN


Key:
Conditions in all cases: both partners purified
[1] = molecular target: T1, GST-β1 (glutathione S-transferase fused …); experiment: pull-down; Factor Xa cleaved MBP-LZTFL1 incubated with GST-fused β1 subunit of AP-1 held on Glutathione Sepharose 4B
[2] = molecular target: T2, GST-β2 (GST-fused β2 subunit of AP-2); experiment: pull-down; MBP-fused proteins held on amylose resin, purified GST-fused proteins added, overnight at 4°C; blots with anti-MBP and anti-GST
[3] = molecular target: T1, GST-β1 (glutathione S-transferase fused …); experiment: as above

Row | binding result [1] | binding result [2] | binding result [3] | Binder
1 | binds | – | – | LZTFL1 from purified MBP-LZTFL1 cleaved by Factor Xa (natural protein, human, UniProt Q9NQ48-1 1-299, looked up, human LZTFL1, wild type; also called Factor Xa cleaved MBP-LZTFL1; source: E. coli, purified as MBP fusion (amylose resin), cleaved with Factor Xa) MAELGLNEHHQNEVINYMRFARSKRGLRLKTVDSCFQDLKESRLVEDTFTIDEVSEVLNGLQAVVHSEVESELINTAYTNVLLLRQLFAQAEKWYLKLQTDISELENRELLEQVAEFEKAEITSSNKKPILDVTKPKLAPLNEGGTAELLNKEILRLQEENEKLKSRLKTIEIQATNALDEKSKLEKALQDLQLDQGNQKDFIKAQDLSNLENTVAALKSEFQKTLNDKTENQKSLEENLATAKHDLLRVQEQLHMAEKELEKKFQQTAAYRNMKEILTKKNDQIKDLRKRLAQYEPED
2 | – | binds | binds | MBP-LZTFL1 (maltose-binding protein fused with human LZTFL1) (natural protein, UniProt Q9NQ48-1 1-299, looked up, human LZTFL1, wild type; cloned in pMAL-c2X; also called MBP-fused LZTFL1; wild-type LZTFL1; source: E. coli, purified (amylose resin)) MAELGLNEHHQNEVINYMRFARSKRGLRLKTVDSCFQDLKESRLVEDTFTIDEVSEVLNGLQAVVHSEVESELINTAYTNVLLLRQLFAQAEKWYLKLQTDISELENRELLEQVAEFEKAEITSSNKKPILDVTKPKLAPLNEGGTAELLNKEILRLQEENEKLKSRLKTIEIQATNALDEKSKLEKALQDLQLDQGNQKDFIKAQDLSNLENTVAALKSEFQKTLNDKTENQKSLEENLATAKHDLLRVQEQLHMAEKELEKKFQQTAAYRNMKEILTKKNDQIKDLRKRLAQYEPED
